B1: Refmab #1: anti-CD117 antibody, VH SEQ ID 15, VL SEQ ID 16, human IgG1 Fc silent (AEASS); also tested as Fab (antibody, V domains shown)
VH: QVQLQQPGAELVKPGASVKMSCKASGYTFTSYNMHWVKQTPGQGLEWIGVIYSGNGDTSYNQKFKGKATLTADKSSSTAYMQINSLTSEDSAVYYCARERDTRFGNWGQGTLVTVSA
VL: NIVLTQSPASLAVSLGLRATISCRASESVDIYGNSFMHWYQQKPGQPPKLLIYLASNLESGVPARFSGSGSRTDFTLTIDPVEADDAATYYCQQNNEDPYTFGGGTKLEIK
modifications: human IgG1 Fc silent (AEASS); Refmab #1 VH; Refmab #1 VL
notes: also tested as Fab
B2: Refmab #1-Bert: improved version of Refmab #1, VH SEQ ID 15, VL SEQ ID 63 (antibody, V domains shown)
VH: B1 VH
VL: EIVLTQSPSSLSASVGDRVTITCRASESVDIYGESFMHWYQQKPGKAPKLLIYLASNLESGVPSRFSGSGSGTDFTLTISSLQPEDFATYYCQQNKEEPYTFGQGTKLEIKRTV
modifications: Refmab #1 VH

Experiments:
[1] = tested on: TF-1 cells with knock-ins of CD117 variants; assay: Inhibition of SCF-dependent proliferation, TF-1 cells with CD117 variant knock-in; type: cell-based, human; details: 100 ng/ml SCF; increasing concentrations; 3 days; E73K; all variants tested; listed as RefMab #1
Procedure: (§1) SCF-dependent proliferation is another function of CD117. SCF-dependent proliferation was measured as follows: TF-1 cells were seeded at a cell concentration of 150 000 cells/ml in sterile, white cell culture treated plates in RPMI Media+10% FCS. Cells were treated with 100 ng/ml of SCF and a titration of various CD117 antibodies or an isotype control antibody at different concentrations. After 3 days of incubation a CellTiter-Glo 2.0 assay (Promega) was performed and luminescence was read in a luminometer (e.g. Envision or Phera Star plate readers).
CD117 wild-type TF-1 cells were compared to TF1 cells with a E73K knock in. […] Both KI1 and KI2 were obtained upon sorting the edited TF1 cells using the SONY MA900, removing any wild-type and knock out cells from the final subsets, thus yielding high purity of knock in.
(§2) Next, proliferation of the variants was tested with increasing concentrations of RefMab #1 at a constant concentration of SCF (100 ng/ml). TF-1 cells were seeded at a cell concentration of 150 000 cells/ml in sterile, white cell culture treated plates with transparent bottom in RPMI+GlutaMax+10% FCS and a fix concentration of 100 ng/ml SCF in the media, Cells were treated with different concentrations of RefMab #1. After 3 days of incubation a CellTiter-Glo 2,0 assay (Promega) was performed, luminescence was read in a luminometer (Envision plate reader).

[2] = tested on: wild type TF-1 cells; assay: Inhibition of SCF-dependent proliferation, wild type TF-1 cells; type: cell-based, human; details: for effect on SCF-dependent proliferation of wild type TF-1 cells: 100 ng/ml SCF, increasing concentrations, 3 days
Procedure: as §1, §2

[3] = tested on: HSPC's; assay: Inhibition of SCF-dependent proliferation, HSPCs; type: cell-based, human
Procedure: For human CD34+ HSCs (different donors) cells are seeded in X-Vivo 20 medium with 100 ng/ml SCF, 50 ng/ml TPO and 50 ng/ml FLT-3 Ligand in sterile white cell culture treated plates at a cell density of 30 000 cells/ml. HSCs are then treated with various CD117 antibodies or an isotype control antibody at different concentrations and plates are incubated for 5 days. After 5 days a CellTiter-Glo 2.0 assay (Promega) is performed and luminescence is read in a luminometer (e.g. Envision or Phera Star plate readers).

[4] = tested on: variants of CD117; assay: Blocking of SCF-induced CD117 phosphorylation (Tyr719 ELISA), TF-1 cells with CD117 variants; type: cell-based, human; details: 100 ng/ml SCF 5 minutes
Procedure: (§3) SCF-dependent phosphorylation is another function of CD117. SCF-dependent phosphorylation was measured using TF-1 cells expressing CD117 (as shown in previous experiments). TF-1 cells were seeded at a concentration of 1 million cells/ml in 1 ml of Medium (RPMI1640 supplemented with GlutaMAX+10% heat inactivated FBS) in a 6-well plate. Cells were treated with 0.5 ug/mL antibody or 500 nM avapratinib. Cells were then treated with 100 ng/ml recombinant human SCF (1 mg/ml PeproGMP® Recombinant Human SCF) for 5 minutes, before cell collection. Cells were washed with ice-cold PBS, before resuspending cells in 250 μL Lysis Buffer (Lysis buffer from Signaling containing Protease Inhibitor and Phosphatase Inhibitor). Cells were flash frozen in liquid nitrogen and thawed at 37° C. twice, before freezing them at −80° C. until further usage. Undiluted samples were thawed and processed according to the manufacturers protocol for the PathScan® Phospho-c-Kit (Tyr719) Sandwich ELISA Kit (Cell Signaling). Absorbance (OD_450 nm) was assessed using the Envision (Perkin Elmer).
(§4) TF-1 cells (wild type, and variants E73K, E73Y, D121K, S123F and S123K of CD117) were seeded at a concentration of 1 million cells/mL in 2 ml of Medium (RPMI1640 supplemented with GlutaMAX+10% heat inactivated FBS) in a 6-well plate. Cells were pre-treated with 0.5 μg/ml of antibodies Refmab #1-Ernie or Refmab #1-Bert for 30 minutes, before adding 100 ng/ml recombinant human SCF (1 mg/mL PeproGMP® Recombinant Human SCF) for 5 minutes. Cells were collected, washed once with ice-cold PBS and resuspended in 500 μL Lysis Buffer (Lysis buffer from Signaling containing Protease Inhibitor and Phosphatase Inhibitor). Cells were then flash frozen in liquid nitrogen and thawed at 37° C. twice, before freezing them at −80° C. until further usage. Undiluted samples were thawed and processed according to the manufacturers protocol for the PathScan Phospho-c-Kit (Tyr719) Sandwich ELISA Kit (Cell Signaling) or the Human c-Kit (CD117) ELISA Kit (Abcam). Absorbance (OD_450 nm) was assessed using the Envision (Perkin Elmer).

[5] = tested on: CD117; assay: Blocking of SCF-induced CD117 phosphorylation (Tyr719 ELISA), wild type TF-1 cells; type: cell-based, human; details: 0.5 ug/mL antibody or 500 nM avapritinib; 100 ng/ml SCF 5 minutes
Procedure: as §3, §4

[6] = tested on: human HSCs; assay: HSC depletion in NBSGW mice engrafted with human HSPCs; type: in vivo; details: 25 mg/kg i.v. days 8, 10, 12, 14; analysis 16 weeks later; vs isotype control; live/hCD45+/CD34+/CD38−/CD45RA−/CD90+
Procedure: (§5) Depletion of human HSCs in mice using various mAbs was adapted from Pang et al. (Blood (2019) 133:2069-78).
NBSGW mice (Jackson Laboratories) were injected with 1 Mio HSPCs. 8, 10, 12 and 14 days after cell injection mice received 25 mg/kg antibody Refmab #1-Bert per dose i.v. 16 weeks later the mice were euthanized and blood, spleen and bone marrow were analysed by FACS. […] HSCs were identified by FACS as live/hCD45+/CD34+/CD38−/CD45RA−/CD90+.

[7] = tested on: CD117+ myeloid cells; assay: Depletion experiment in NSG mice with E73K gene-edited HSPCs; type: in vivo; details: 25 mg/kg i.v. days 8, 10, 12, 14; 16 weeks; vs isotype control
Procedure: In another experiment, NSG mice (Jackson Laboratories) were sub-lethally irradiated one day before injection with 1 Mio gene-edited HSPCs carrying a E73K variant of CD117. 8, 10, 12 and 14 days after cell injection mice received 25 mg/kg antibody Refmab #1-Bert or 25 mg/kg isotope control antibody i.v. per dose. 16 weeks later the mice were euthanized, and blood, spleen and bone marrow were analyzed by FACS.
CD117+ myeloid cells were identified by FACS as live/hCD45+/CD33+/CD117+. […] Clone 104D2 was used as an expression control. Cells were classified as not edited (104D2+ and SR-1+) or E73K edited (104D2+ but SR-1−) based on double staining with anti-CD117 clone SR-1 and anti-CD117 clone 104D2.

[8] = tested on: CD34+ progenitor cells; assay: Additional HSC depletion experiment in NBSGW mice with edited HSPCs; type: in vivo; details: 4 mg/kg i.v. days 7, 9, 11, 12, 16 weeks, vs isotype control
Procedure: as §5
NBSGW mice (Jackson Laboratories) were injected with 1 Mio HSPCs from 2 different donors carrying a E73K, S123K or D121K variant of CD117. Control groups of mice received unedited electroporation control HSPCs. 7, 9, 11 and 12 days after cell injection mice received 4 mg/kg antibody Refmab #1-Bert per dose i.v. 16 weeks later the mice were euthanized and blood, spleen and bone marrow were analyzed by FACS. To identify unedited and edited cells the CD117-specific antibody clones 104D2 and SR-1 were used. […] Cells were classified as unedited (104D2+ and SR-1+) or edited (104D2+ but SR-1−) based on double staining with both anti-CD117 clones.

| Molecule | effect on SCF-dependent proliferation of TF-1 cells with CD117 variants [1] | effect on SCF-dependent proliferation of wild type TF-1 cells [2] | effect on SCF-dependent proliferation of wild type TF-1 cells ([2]; listed as RefMab #1) | IC50 in SCF-dependent proliferation assay ([2]; TF-1 cells) [µg/mL] | IC50 in SCF-dependent proliferation assay [3] [µg/mL] | blocking of SCF-induced phosphorylation, E73K variant ([4]; 0.5 ug/mL antibody or 500 nM avapritinib) | blocking of SCF-induced phosphorylation, wild type cells [5] | blocking of SCF-dependent CD117 phosphorylation, D121K and S123K variants ([4]; 0.5 μg/ml antibody 30 minutes, same for E73K, E73Y, S123F (data not shown)) | bone marrow HSC depletion [6] | effect on E73K variant CD117+ myeloid cells in bone marrow [7] | effect on unedited CD117+ myeloid cells in bone marrow [7] | effect on E73K, D121K and S123K-edited cells [8] | effect on unedited CD34+ progenitor cells ([8]; live/hCD45+/CD34+/CD38−) |
| --- | --- | --- | --- | --- | --- | --- | --- | --- | --- | --- | --- | --- | --- |
| B1 | not affected | decrease in proliferation | pronounced effect | 0.2760 | 0.0623 | unaffected | can be blocked |  |  |  |  |  |  |
| B2 |  |  |  |  |  |  | blocked | unaffected | in vivo depletion of HSCs | enrichment of E73K variant cells | depletion of unedited cells | enrichment of E73K, D121K and S123K-edited variant cells | depletion of unedited CD34+ progenitor cells |

Reference: patent publication US20250057951A1, “DISCERNIBLE CELL SURFACE PROTEIN VARIANTS OF CD117 FOR USE IN CELL THERAPY” (UNIVERSITÄT BASEL, priority 2021, published 2025)
